Data reported in patent publication US20150110777A1 (PROTHENA BIOSCIENCES, published 2015).
Changes are numbered by the printed parent chain.

Key:
[1] = molecular target: T1, human islet-amyloid polypeptide (IAPP) (human); assay: Biacore SPR; affinity compared with murine 6B8 as reference
T1 construct: also called hIAPP; human IAPP
T1 peptide: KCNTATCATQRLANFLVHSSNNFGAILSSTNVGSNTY
Procedure: (§1) The affinity of various combinations of 6B8 humanized heavy chains and humanized light chain proteins for hIAPP was analyzed on a Biacore instrument. Biacore analysis was performed by preparing an anti-human CM5 chip following the protocol provided in the kit. The 6B8 antibody was captured such that the maximum binding of rat IAPP would not exceed 20-30 RU. […] Data was blank subtracted to both an irrelevant sensor not containing 6B8 and 0 IAPP concentration to account for the dissociation of 6B8 from the anti-human capture. Data was then analyzed using a global 1:1 fit.

rat IAPP [2] = molecular target: T2, rat IAPP (rat, UniProt P12969 38-74); assay: not stated for the murine antibody; sentence follows the Biacore results
T2 peptide (looked up): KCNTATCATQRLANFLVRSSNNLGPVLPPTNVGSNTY

rat IAPP [3] = molecular target: T2, rat IAPP; assay: Biacore SPR; antibody captured on anti-human CM5 chip, rat IAPP flowed over; global 1:1 fit
Procedure: as §1

rat IAPP [4] = molecular target: T2, rat IAPP; assay: Biacore SPR (result of Example 7 told in the description)
Procedure: as §1

[5] = molecular target: T3, peptide NTATCATQRL, amino acids 3-12 of hIAPP (human); assay: epitope mapping against shorter peptides from hIAPP
T3 peptide: NTATCATQRL

B1: chimeric mouse-human 6B8 antibody (antibody, V domains shown)
VH: QVQLQQPGAELVKPGASVRLSCKASGYTFTSYWMHWVKQRPGQGLEWLGEINPRNGHSNYNEKIRNKATLTADTSSSTVSMQLSSLTSEDSAVYYCTVNRGFYYFFDVWGTGTTVTVSS
VL: DVLMTQSPLSLPVSLGDQASISCRSSQSIAHSNGNTYLEWYLQKPGQSPKLLIYKVSNRFSGVPDRFSGSGSGTDFTLKISRVEAEDLGVYYCFQGSHIPRTFGGGTKLEIKR
notes: Mouse 6B8 variable regions with human constant regions; captured on an anti-human chip; also called ch6B8; chimeric 6B8 antibody
fold of the affinity of the murine 6B8 antibody [1]: ≤ 3 fold | fold difference in affinity against the murine 6B8 antibody (rat IAPP [2]): ≤ 3 fold | Kd (rat IAPP [3]): 23.4 nM | koff (rat IAPP [3]): 0.00513 s⁻¹ | kon (rat IAPP [3]): 220000 M⁻¹ s⁻¹

B2: humanized 6B8 H2L1 antibody (antibody, V domains shown)
VH: QVQLQQSGAEVKKPGASVKVSCKASGYTFTSYWMHWVRQRPGQGLEWMGEINPRNGHSNYNEKIRNRVTMTADTSTSTVYMELSSLRSEDTAVYYCTVNRGFYYFFDVWGQGTTVTVSS
VL: B1 VL with S14T, L15P, D17E, Q18P, K50Q, L88V
notes: Only variable regions are tied to the tested antibody; also called h6B8-H2L1; h6B8 H2L1
factor of affinity against the mouse-human chimeric 6B8 antibody (rat IAPP [4]): ≤ 1.5 fold | fold of the affinity of the murine 6B8 antibody [1]: ≤ 3 fold | fold difference in affinity against the murine 6B8 antibody (rat IAPP [2]): ≤ 3 fold | Kd (rat IAPP [3]): 31.2 nM | koff (rat IAPP [3]): 0.00832 s⁻¹ | kon (rat IAPP [3]): 266000 M⁻¹ s⁻¹

B3: murine 6B8 antibody (LA21-6B8) (antibody, V domains shown)
VH: B1 VH
VL: B1 VL
notes: also called m6B8; mouse 6B8
binding result [5]: binds
